From patent publication US20170355757A1 (Regeneron, published 2017)

Columns and labels:
human C5 R885H-mmh [1] = target: T1, human C5 R885H-mmh (human, UniProt P01031 19-1676); test: SPR, mAb captured via anti-hFc, 37C
T1 construct: also called human C5 variant R885H
Outline: (§1)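 Sensorgrams of tagged or untagged C5 binding to anti-hFc-captured mAbs, fitted 1:1; KD calculated from the ratio of rate constants.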

monkey C5-mmh = target: T2, monkey C5-mmh (monkey, UniProt P01031 19-1676 (human entry), limits assumed); test: SPR, mAb captured via anti-hFc, 37C
T2 construct: Recombinant monkey C5 with a C-terminal myc-myc-hexahistidine tag
T2 chain: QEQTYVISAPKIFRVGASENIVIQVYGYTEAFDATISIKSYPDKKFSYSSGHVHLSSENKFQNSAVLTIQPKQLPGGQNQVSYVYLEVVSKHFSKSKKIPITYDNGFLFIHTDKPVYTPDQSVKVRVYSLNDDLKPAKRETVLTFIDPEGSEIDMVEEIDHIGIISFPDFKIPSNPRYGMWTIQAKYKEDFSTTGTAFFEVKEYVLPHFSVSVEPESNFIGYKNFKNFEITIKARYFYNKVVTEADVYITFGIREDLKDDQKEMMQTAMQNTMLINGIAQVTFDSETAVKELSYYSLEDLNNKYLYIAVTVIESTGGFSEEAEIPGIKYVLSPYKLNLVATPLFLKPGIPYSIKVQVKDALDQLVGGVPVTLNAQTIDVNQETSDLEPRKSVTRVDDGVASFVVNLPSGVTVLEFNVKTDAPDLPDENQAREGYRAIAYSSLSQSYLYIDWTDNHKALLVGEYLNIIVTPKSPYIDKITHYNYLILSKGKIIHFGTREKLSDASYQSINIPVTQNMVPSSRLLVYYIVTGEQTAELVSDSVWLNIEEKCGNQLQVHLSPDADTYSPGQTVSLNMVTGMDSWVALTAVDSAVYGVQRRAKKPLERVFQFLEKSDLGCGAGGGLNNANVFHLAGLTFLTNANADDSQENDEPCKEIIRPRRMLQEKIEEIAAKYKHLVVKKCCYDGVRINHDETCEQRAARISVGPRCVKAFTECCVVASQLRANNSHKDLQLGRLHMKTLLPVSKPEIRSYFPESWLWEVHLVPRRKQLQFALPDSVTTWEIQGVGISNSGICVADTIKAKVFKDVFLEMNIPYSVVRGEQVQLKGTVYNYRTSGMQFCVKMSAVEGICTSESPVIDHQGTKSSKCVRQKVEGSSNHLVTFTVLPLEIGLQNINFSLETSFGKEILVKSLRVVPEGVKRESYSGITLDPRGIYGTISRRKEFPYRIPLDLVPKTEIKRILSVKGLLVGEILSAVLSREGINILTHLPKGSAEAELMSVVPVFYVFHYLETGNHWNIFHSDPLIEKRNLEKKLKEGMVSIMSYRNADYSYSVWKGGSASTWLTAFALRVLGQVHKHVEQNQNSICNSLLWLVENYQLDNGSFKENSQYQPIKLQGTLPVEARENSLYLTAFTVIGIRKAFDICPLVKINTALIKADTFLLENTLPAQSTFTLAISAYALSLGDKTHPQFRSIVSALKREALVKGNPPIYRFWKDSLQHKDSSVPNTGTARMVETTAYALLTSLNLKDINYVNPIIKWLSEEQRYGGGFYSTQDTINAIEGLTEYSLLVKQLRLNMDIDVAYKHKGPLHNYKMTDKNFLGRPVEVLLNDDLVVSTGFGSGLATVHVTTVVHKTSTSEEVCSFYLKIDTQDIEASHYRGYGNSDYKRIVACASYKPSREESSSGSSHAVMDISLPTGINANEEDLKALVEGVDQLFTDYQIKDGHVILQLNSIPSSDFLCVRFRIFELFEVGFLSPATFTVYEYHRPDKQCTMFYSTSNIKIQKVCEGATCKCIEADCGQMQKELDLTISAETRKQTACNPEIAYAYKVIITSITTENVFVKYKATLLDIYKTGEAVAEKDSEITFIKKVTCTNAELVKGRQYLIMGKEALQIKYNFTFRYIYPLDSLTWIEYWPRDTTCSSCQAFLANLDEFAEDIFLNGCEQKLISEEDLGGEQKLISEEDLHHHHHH
Outline: as §1

human C5 R885C-mmh [2] = target: T3, human C5 R885C-mmh (human, UniProt P01031 19-1676); test: SPR, mAb captured via anti-hFc, 37C
T3 construct: also called human C5 variant R885C
Outline: as §1

human C5 R885H-mmh [3] = target: T1, human C5 R885H-mmh; test: SPR, mAb captured via anti-hFc, 25C
Outline: as §1

human C5 R885C-mmh [4] = target: T3, human C5 R885C-mmh; test: SPR, mAb captured via anti-hFc, 25C
Outline: as §1

human C5 = target: T4, human C5 (human, UniProt P01031 19-1676); test: SPR, mAb captured via anti-hFc, dissociation at pH7.4 vs pH6.0, 25C
T4 construct: Bought human C5 (EMD #204888, said elsewhere to be purified from plasma); also called hC5; complement component 5
Outline: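 Anti-C5 mAbs (human IgG4 Fc) captured on an amine-coupled mouse anti-human Fc surface; recombinant C5 dissociation followed by Biacore T200 in PBS-T (0.01M phosphate, 0.15M NaCl, 0.05% Tween-20) at pH7.4 or pH6.0. Dissociative half-life (t½) calculated from kd.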

B1: H4H12177P2 (antibody, human IgG4, V domains shown)
VH: EVQLVESGGGVVQRGESLRLSCSASDFIFKDYAMYWVRQIPGKGLEWISLISGDGDTTWYGDSVKGRFTISRDNNENSLFLQMNDLRTEDTAMYYCARDMGWNFFQLQYWGQGTLVTVSS
VL: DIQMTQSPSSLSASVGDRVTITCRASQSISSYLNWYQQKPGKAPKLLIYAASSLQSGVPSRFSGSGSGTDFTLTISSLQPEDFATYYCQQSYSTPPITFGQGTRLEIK
notes: Human IgG4 Fc with S108P hinge mutation (H4H)
**Q.** What does the source list for B1?
**A.** 100 nM Human C5 R885H-mmh Bound (RU) (human C5 R885H-mmh [1]): 51 RU; Kd (human C5 R885H-mmh [1]): 10 nM; koff (human C5 R885H-mmh [1]): 0.00276 s⁻¹; kon (human C5 R885H-mmh [1]): 276000 M⁻¹ s⁻¹; t1/2 (human C5 R885H-mmh [1]): 4 min; 100 nM monkey C5-mmh Bound (RU) (monkey C5-mmh): 27 RU; Kd (monkey C5-mmh): 47.7 nM; koff (monkey C5-mmh): 0.00717 s⁻¹; kon (monkey C5-mmh): 150000 M⁻¹ s⁻¹; t1/2 (monkey C5-mmh): 2 min; 100 nM Human C5 R885C-mmh Bound (RU) (human C5 R885C-mmh [2]): 31 RU; Kd (human C5 R885C-mmh [2]): 47.6 nM; koff (human C5 R885C-mmh [2]): 0.00507 s⁻¹; kon (human C5 R885C-mmh [2]): 107000 M⁻¹ s⁻¹; t1/2 (human C5 R885C-mmh [2]): 2 min; 100 nM Human C5 R885H-mmh Bound (RU) (human C5 R885H-mmh [3]): 232 RU; Kd (human C5 R885H-mmh [3]): 4.01 nM; koff (human C5 R885H-mmh [3]): 0.000592 s⁻¹; kon (human C5 R885H-mmh [3]): 148000 M⁻¹ s⁻¹; t1/2 (human C5 R885H-mmh [3]): 20 min; 100 nM Human C5 R885C-mmh Bound (RU) (human C5 R885C-mmh [4]): 177 RU; Kd (human C5 R885C-mmh [4]): 13.2 nM; koff (human C5 R885C-mmh [4]): 0.00132 s⁻¹; kon (human C5 R885C-mmh [4]): 100000 M⁻¹ s⁻¹; t1/2 (human C5 R885C-mmh [4]): 9 min; t1/2 Ratio pH7.4/pH6.0 (human C5): ≤ 0.5
